Measurements published in patent US20050282181A1 (published 2005).

Biological target: T1, biotinylated soluble human IL-1RI ectodomain (human, UniProt P14778 18-336, biotinylated with EZ-Link Sulfo-NHS-SS-Biotin, approaching 2 mol biotin/mol receptor)
T1 construct: extracellular domain; also called biotinylated IL-1RI; biotinylated human IL-1RI
T1 sequence (looked up): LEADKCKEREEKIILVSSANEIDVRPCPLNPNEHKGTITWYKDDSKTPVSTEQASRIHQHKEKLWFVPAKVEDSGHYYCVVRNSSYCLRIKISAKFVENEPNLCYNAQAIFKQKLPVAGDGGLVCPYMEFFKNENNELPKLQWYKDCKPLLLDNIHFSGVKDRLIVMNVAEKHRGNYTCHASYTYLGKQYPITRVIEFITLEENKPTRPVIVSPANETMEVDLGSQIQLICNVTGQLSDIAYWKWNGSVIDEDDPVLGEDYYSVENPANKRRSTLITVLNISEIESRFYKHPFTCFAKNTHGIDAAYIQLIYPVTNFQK
Experiment: SPR, IL-1α binding to biotinylated receptor

B1: human IL-1α (ligand, UniProt P01583 113-271, looked up)
chain: SAPFSFLSNVKYNFMRIIKYEFILNDALNQSIIRANDQYLTAAALHNLDEAVKFDMGAYKSSKDDAKITVILRISKTQLYVTAQDEDQPVLLKEMPEIPKTITGSETNLLFFWETHGTKNYFTSVAHPNLFIATKQDYWVCLAGGPPSITDFQILENQA
A Kd of 1 nM was found for B1 in this work.
